# Results published in article PMC7835342.
# How the values were obtained:
# [1] = molecular target: T1, HxlR-WT (Bacillus subtilis 168, UniProt P42406 1-120); test: X-ray crystallography (2.9 A); 1 mM FA-treated protein; Cys11-CH2-Lys13 methylene bridge; 50 mM MgCl2 in crystallization; EMSA: protein preincubated +/- FA (1 mM in Methods, 0.6 mM in legends) in 20 mM HEPES pH 7.5, 300 mM NaCl, 1-2 h, 37 C; then 50 nM dsDNA in 20 mM HEPES pH 7.0
# [2] = molecular target: HxlR-K13A (Bacillus subtilis 168, UniProt P42406 1-120, K13A); test: EMSA; no FA; higher basal binding than WT; EMSA: protein preincubated +/- FA (1 mM in Methods, 0.6 mM in legends) in 20 mM HEPES pH 7.5, 300 mM NaCl, 1-2 h, 37 C; then 50 nM dsDNA in 20 mM HEPES pH 7.0
# [3] = molecular target: T1, HxlR-WT; test: EMSA; FA-treated (0.6 mM FA in text/legend; 1 mM in Methods); DNA binding enhanced; EMSA: protein preincubated +/- FA (1 mM in Methods, 0.6 mM in legends) in 20 mM HEPES pH 7.5, 300 mM NaCl, 1-2 h, 37 C; then 50 nM dsDNA in 20 mM HEPES pH 7.0
Binder,binding result [1],binding result [2],binding result [3]
20 bp palindromic crystallization DNA (dsDNA) DNA 1: CAGTATCCTCGAGGATACTG DNA 2: CAGTATCCTCGAGGATACTG,binds,–,–
BRH (hxlAB promoter EMSA probe) (dsDNA) DNA 1: CCTCACAGTATCCTCCAAGTAACTTGTTGACTTCAAAGTGCCTACTTCTC DNA 2: GAGAAGTAGGCACTTTGAAGTCAACAAGTTACTTGGAGGATACTGTGAGG,–,binds,binds
